Laboratory results: article PMC5025857, “Redox-dependent Regulation of Gluconeogenesis by a Novel Mechanism Mediated by a Peroxidatic Cysteine of Peroxiredoxin” (Scientific Reports, 2016)

B1: Tsa1 (wild type) [S. cerevisiae] / HA-tagged Pyk1 (HA-Pyk1) [S. cerevisiae] (parent)
chain 1: MVAQVQKQAPTFKKTAVVDGVFDEVSLDKYKGKYVVLAFIPLAFTFVCPTEIIAFSEAAKKFEEQGAQVLFASTDSEYSLLAWTNIPRKEGGLGPINIPLLADTNHSLSRDYGVLIEEEGVALRGLFIIDPKGVIRHITINDLPVGRNVDEALRLVEAFQWTDKNGTVLPCNWTPGAATIKPTVEDSKEYFEAANK
chain 2: MSRLERLTSLNVVAGSDLRRTSIIGTIGPKTNNPETLVALRKAGLNIVRMNFSHGSYEYHKSVIDNARKSEELYPGRPLAIALDTKGPEIRTGTTTNDVDYPIPPNHEMIFTTDDKYAKACDDKIMYVDYKNITKVISAGRIIYVDDGVLSFQVLEVVDDKTLKVKALNAGKICSHKGVNLPGTDVDLPALSEKDKEDLRFGVKNGVHMVFASFIRTANDVLTIREVLGEQGKDVKIIVKIENQQGVNNFDEILKVTDGVMVARGDLGIEIPAPEVLAVQKKLIAKSNLAGKPVICATQMLESMTYNPRPTRAEVSDVGNAILDGADCVMLSGETAKGNYPINAVTTMAETAVIAEQAIAYLPNYDDMRNCTPKPTSTTETVAASAVAAVFEQKAKAIIVLSTSGTTPRLVSKYRPNCPIILVTRCPRAARFSHLYRGVFPFVFEKEPVSDWTDDVEARINFGIEKAKEFGILKKGDTYVSIQGFKAGAGHSNTLQVSTV

Variants of: B1
Assay: pull-down (co-IP with anti-HA beads, anti-Tsa1 immunoblot, band quantification)
Conditions: +DTT, lane 9, lysate 67 μg/lane and 111 μg/lane for HA-Pyk1 and Tsa1, parent: 1

With chain 1 MVAQVQKQAPTFKKTAVVDGVFDEVSLDKYKGKYVVLAFIPLAFTFVTPTEIIAFSEAAKKFEEQGAQVLFASTDSEYSLLAWTNIPRKEGGLGPINIPLLADTNHSLSRDYGVLIEEEGVALRGLFIIDPKGVIRHITINDLPVGRNVDEALRLVEAFQWTDKNGTVLPTNWTPGAATIKPTVEDSKEYFEAANK [chain 1 C48T C171T] as the variant, how does the ratio to parent read?
The ratio to parent was 0.5.

Same assay, conditions: +DTT, lane 9, lysate 67 μg/lane and 111 μg/lane for HA-Pyk1 and Tsa1, parent: 3.1

chain 1 MVAQVQKQAPTFKKTAVVDGVFDEVSLDKYKGKYVVLAFIPLAFTFVTPTEIIAFSEAAKKFEEQGAQVLFASTDSEYSLLAWTNIPRKEGGLGPINIPLLADTNHSLSRDYGVLIEEEGVALRGLFIIDPKGVIRHITINDLPVGRNVDEALRLVEAFQWTDKNGTVLPTNWTPGAATIKPTVEDSKEYFEAANK [chain 1 C48T C171T] was tested. Which screen value (% of Total Tsa1) did it give?
The screen value (% of Total Tsa1) was 1.3.
